Columns and labels:
HeLa Kyoto [1] = test: solubility in G1/S (NP-40 vs SDS abundance) (log2 ratio); higher = more soluble; details: cell cycle stage: G1/S
HeLa Kyoto [2] = test: melting temperature (median over replicates), in situ; higher = more thermally stable
HeLa Kyoto [3] = test: solubility change mitosis vs G1/S (difference of NP-40 vs SDS log2 ratios) (log2 ratio difference); higher = more soluble in mitosis
HeLa Kyoto [4] = test: thermal stability score vs G1/S (z-score of summed log2 fold changes over temperatures); higher = more thermally stable than in G1/S
[5] = cell cycle stage: early G1 (4.5 h after nocodazole release)
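For melting temperature (median over replicates), in situ in this document: HeLa Kyoto cells synchronized by double thymidine or nocodazole block, proteins quantified by TMT10plex mass spectrometry, three independent biological replicates.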
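For solubility change mitosis vs G1/S (difference of NP-40 vs SDS log2 ratios) in this document: synchronized HeLa Kyoto cells (double thymidine block for G1/S, nocodazole release for mitosis), protein amounts in NP-40 versus SDS lysates quantified by mass spectrometry, three biological replicates.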
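For solubility in G1/S (NP-40 vs SDS abundance) in this document: HeLa Kyoto cells arrested at G1/S by double thymidine block, proteins quantified by TMT10plex mass spectrometry in mild NP-40 versus SDS extracts, three biological replicates.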
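For thermal stability score vs G1/S (z-score of summed log2 fold changes over temperatures) in this document: synchronized HeLa Kyoto cells, proteins quantified by TMT10plex mass spectrometry, three biological replicates, mitosis taken 0.5 h after nocodazole release, G1/S directly after double thymidine block.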

Sequence | solubility in G1/S (log2) (HeLa Kyoto [1]) | melting temperature (HeLa Kyoto [2]; cell cycle stage: G1/S) [°C] | melting temperature (HeLa Kyoto [2]; cell cycle stage: mitosis) [°C] | solubility change mitosis (log2) (HeLa Kyoto [3]) | thermal stability score (HeLa Kyoto [4]; [5]) | thermal stability score (HeLa Kyoto [4]; cell cycle stage: mitosis)
MAIPGRQYGLILPKKTQQLHPVLQKPSVFGNDSDDDDETSVSESLQREAAKKQAMKQTKLEIQKALAEDATVYEYDSIYDEMQKKKEENNPKLLLGKDRKPKYIHNLLKAVEIRKKEQEKRMEKKIQREREMEKGEFDDKEAFVTSAYKKKLQERAEEEEREKRAAALEACLDVTKQKDLSGFYRHLLNQAVGEEEVPKCSFREARSGIKEEKSRGFSNEVSSKNRIPQEKCILQTDVKVEENPDADSDFDAKSSADDEIEETRVNCRREKVIETPENDFKHHRSQNHSRSPSEERGHSTRHHTKGSRTSRGHEKREDQHQQKQSRDQENHYTDRDYRKERDSHRHREASHRDSHWKRHEQEDKPRARDQRERSDRVWKREKDREKYSQREQERDRQQNDQNRPSEKGEKEEKSKAKEEHMKVRKERYENNDKYRDREKREVGVQSSERNQDRKESSPNSRAKDKFLDQERSNKMRNMAKDKERNQEKPSNSESSLGAKHRLTEEGQEKGKEQERPPEAVSKFAKRNNEETVMSARDRYLARQMARVNAKTYIEKEDD [NSRP1] | -0.433 | 55.3 | 55.6 | 0.242 | 0.0783 | -1.16
MAIRKKSTKSPPVLSHEFVLQNHADIVSCVAMVFLLGLMFEITAKASIIFVTLQYNVTLPATEEQATESVSLYYYGIKDLATVFFYMLVAIIIHAVIQEYMLDKINRRMHFSKTKHSKFNESGQLSAFYLFACVWGTFILISENYISDPTILWRAYPHNLMTFQMKFFYISQLAYWLHAFPELYFQKTKKEDIPRQLVYIGLYLFHIAGAYLLNLNHLGLVLLVLHYFVEFLFHISRLFYFSNEKYQKGFSLWAVLFVLGRLLTLILSVLTVGFGLARAENQKLDFSTGNFNVLAVRIAVLASICVTQAFMMWKFINFQLRRWREHSAFQAPAVKKKPTVTKGRSSKKGTENGVNGTLTSNVADSPRNKKEKSS [TRAM1] | -0.0229 | 52.2 | 52.6 | -0.0373 | -0.164 | -0.999
MAKGDPKKPKGKMSAYAFFVQTCREEHKKKNPEVPVNFAEFSKKCSERWKTMSGKEKSKFDEMAKADKVRYDREMKDYGPAKGGKKKKDPNAPKRPPSGFFLFCSEFRPKIKSTNPGISIGDVAKKLGEMWNNLNDSEKQPYITKAAKLKEKYEKDVADYKSKGKFDGAKGPAKVARKKVEEEDEEEEEEEEEEEEEEDE [HMGB3] | 0.667 | 57 | 57.3 | 0.349 | 1.34 | 0.604
MAKIAKTHEDIEAQIREIQGKKAALDEAQGVGLDSTGYYDQEIYGGSDSRFAGYVTSIAATELEDDDDDYSSSTSLLGQKKPGYHAPVALLNDIPQSTEQYDPFAEHRPPKIADREDEYKKHRRTMIISPERLDPFADGGKTPDPKMNARTYMDVMREQHLTKEEREIRQQLAEKAKAGELKVVNGAAASQPPSKRKRRWDQTADQTPGATPKKLSSWDQAETPGHTPSLRWDETPGRAKGSETPGATPGSKIWDPTPSHTPAGAATPGRGDTPGHATPGHGGATSSARKNRWDETPKTERDTPGHGSGWAETPRTDRGGDSIGETPTPGASKRKSRWDETPASQMGGSTPVLTPGKTPIGTPAMNMATPTPGHIMSMTPEQLQAWRWEREIDERNRPLSDEELDAMFPEGYKVLPPPAGYVPIRTPARKLTATPTPLGGMTGFHMQTEDRTMKSVNDQPSGNLPFLKPDDIQYFDKLLVDVDESTLSPEEQKERKIMKLLLKIKNGTPPMRKAALRQITDKAREFGAGPLFNQILPLLMSPTLEDQERHLLVKVIDRILYKLDDLVRPYVHKILVVIEPLLIDEDYYARVEGREIISNLAKAAGLATMISTMRPDIDNMDEYVRNTTARAFAVVASALGIPSLLPFLKAVCKSKKSWQARHTGIKIVQQIAILMGCAILPHLRSLVEIIEHGLVDEQQKVRTISALAIAALAEAATPYGIESFDSVLKPLWKGIRQHRGKGLAAFLKAIGYLIPLMDAEYANYYTREVMLILIREFQSPDEEMKKIVLKVVKQCCGTDGVEANYIKTEILPPFFKHFWQHRMALDRRNYRQLVDTTVELANKVGAAEIISRIVDDLKDEAEQYRKMVMETIEKIMGNLGAADIDHKLEEQLIDGILYAFQEQTTEDSVMLNGFGTVVNALGKRVKPYLPQICGTVLWRLNNKSAKVRQQAADLISRTAVVMKTCQEEKLMGHLGVVLYEYLGEEYPEVLGSILGALKAIVNVIGMHKMTPPIKDLLPRLTPILKNRHEKVQENCIDLVGRIADRGAEYVSAREWMRICFELLELLKAHKKAIRRATVNTFGYIAKAIGPHDVLATLLNNLKVQERQNRVCTTVAIAIVAETCSPFTVLPALMNEYRVPELNVQNGVLKSLSFLFEYIGEMGKDYIYAVTPLLEDALMDRDLVHRQTASAVVQHMSLGVYGFGCEDSLNHLLNYVWPNVFETSPHVIQAVMGALEGLRVAIGPCRMLQYCLQGLFHPARKVRDVYWKIYNSIYIGSQDALIAHYPRIYNDDKNTYIRYELDYIL [SF3B1] | -0.486 | 50.9 | 50.4 | 0.299 | -1.78 | -0.315
MAKRSRGPGRRCLLALVLFCAWGTLAVVAQKPGAGCPSRCLCFRTTVRCMHLLLEAVPAVAPQTSILDLRFNRIREIQPGAFRRLRNLNTLLLNNNQIKRIPSGAFEDLENLKYLYLYKNEIQSIDRQAFKGLASLEQLYLHFNQIETLDPDSFQHLPKLERLFLHNNRITHLVPGTFNHLESMKRLRLDSNTLHCDCEILWLADLLKTYAESGNAQAAAICEYPRRIQGRSVATITPEELNCERPRITSEPQDADVTSGNTVYFTCRAEGNPKPEIIWLRNNNELSMKTDSRLNLLDDGTLMIQNTQETDQGIYQCMAKNVAGEVKTQEVTLRYFGSPARPTFVIQPQNTEVLVGESVTLECSATGHPPPRISWTRGDRTPLPVDPRVNITPSGGLYIQNVVQGDSGEYACSATNNIDSVHATAFIIVQALPQFTVTPQDRVVIEGQTVDFQCEAKGNPPPVIAWTKGGSQLSVDRRHLVLSSGTLRISGVALHDQGQYECQAVNIIGSQKVVAHLTVQPRVTPVFASIPSDTTVEVGANVQLPCSSQGEPEPAITWNKDGVQVTESGKFHISPEGFLTINDVGPADAGRYECVARNTIGSASVSMVLSVNVPDVSRNGDPFVATSIVEAIATVDRAINSTRTHLFDSRPRSPNDLLALFRYPRDPYTVEQARAGEIFERTLQLIQEHVQHGLMVDLNGTSYHYNDLVSPQYLNLIANLSGCTAHRRVNNCSDMCFHQKYRTHDGTCNNLQHPMWGASLTAFERLLKSVYENGFNTPRGINPHRLYNGHALPMPRLVSTTLIGTETVTPDEQFTHMLMQWGQFLDHDLDSTVVALSQARFSDGQHCSNVCSNDPPCFSVMIPPNDSRARSGARCMFFVRSSPVCGSGMTSLLMNSVYPREQINQLTSYIDASNVYGSTEHEARSIRDLASHRGLLRQGIVQRSGKPLLPFATGPPTECMRDENESPIPCFLAGDHRANEQLGLTSMHTLWFREHNRIATELLKLNPHWDGDTIYYETRKIVGAEIQHITYQHWLPKILGEVGMRTLGEYHGYDPGINAGIFNAFATAAFRFGHTLVNPLLYRLDENFQPIAQDHLPLHKAFFSPFRIVNEGGIDPLLRGLFGVAGKMRVPSQLLNTELTERLFSMAHTVALDLAAINIQRGRDHGIPPYHDYRVYCNLSAAHTFEDLKNEIKNPEIREKLKRLYGSTLNIDLFPALVVEDLVPGSRLGPTLMCLLSTQFKRLRDGDRLWYENPGVFSPAQLTQIKQTSLARILCDNADNITRVQSDVFRVAEFPHGYGSCDEIPRVDLRVWQDCCEDCRTRGQFNAFSYHFRGRRSLEFSYQEDKPTKKTRPRKIPSVGRQGEHLSNSTSAFSTRSDASGTNDFREFVLEMQKTITDLRTQIKKLESRLSTTECVDAGGESHANNTKWKKDACTICECKDGQVTCFVEACPPATCAVPVNIPGACCPVCLQKRAEEKP [PXDN] | -0.0223 | 54 | 54.5 | -0.103 | 3.4 | 3.61
MAKTVAYFYDPDVGNFHYGAGHPMKPHRLALTHSLVLHYGLYKKMIVFKPYQASQHDMCRFHSEDYIDFLQRVSPTNMQGFTKSLNAFNVGDDCPVFPGLFEFCSRYTGASLQGATQLNNKICDIAINWAGGLHHAKKFEASGFCYVNDIVIGILELLKYHPRVLYIDIDIHHGDGVQEAFYLTDRVMTVSFHKYGNYFFPGTGDMYEVGAESGRYYCLNVPLRDGIDDQSYKHLFQPVINQVVDFYQPTCIVLQCGADSLGCDRLGCFNLSIRGHGECVEYVKSFNIPLLVLGGGGYTVRNVARCWTYETSLLVEEAISEELPYSEYFEYFAPDFTLHPDVSTRIENQNSRQYLDQIRQTIFENLKMLNHAPSVQIHDVPADLLTYDRTDEADAEERGPEENYSRPEAPNEFYDGDHDNDKESDVEI [HDAC3] | -0.055 |  | 52.6 | -0.161 | 1.43 | 1.96
MAKVSELYDVTWEEMRDKMRKWREENSRNSEQIVEVGEELINEYASKLGDDIWIIYEQVMIAALDYGRDDLALFCLQELRRQFPGSHRVKRLTGMRFEAMERYDDAIQLYDRILQEDPTNTAARKRKIAIRKAQGKNVEAIRELNEYLEQFVGDQEAWHELAELYINEHDYAKAAFCLEELMMTNPHNHLYCQQYAEVKYTQGGLENLELSRKYFAQALKLNNRNMRALFGLYMSASHIASNPKASAKTKKDNMKYASWAASQINRAYQFAGRSKKETKYSLKAVEDMLETLQITQS [EMC2] | 0.188 | 53.8 | 53.9 | 0.0699 | -1.21 | -1.88
MALFAVFQTTFFLTLLSLRTYQSEVLAERLPLTPVSLKVSTNSTRQSLHLQWTVHNLPYHQELKMVFQIQISRIETSNVIWVGNYSTTVKWNQVLHWSWESELPLECATHFVRIKSLVDDAKFPEPNFWSNWSSWEEVSVQDSTGQDILFVFPKDKLVEEGTNVTICYVSRNIQNNVSCYLEGKQIHGEQLDPHVTAFNLNSVPFIRNKGTNIYCEASQGNVSEGMKGIVLFVSKVLEEPKDFSCETEDFKTLHCTWDPGTDTALGWSKQPSQSYTLFESFSGEKKLCTHKNWCNWQITQDSQETYNFTLIAENYLRKRSVNILFNLTHRVYLMNPFSVNFENVNATNAIMTWKVHSIRNNFTYLCQIELHGEGKMMQYNVSIKVNGEYFLSELEPATEYMARVRCADASHFWKWSEWSGQNFTTLEAAPSEAPDVWRIVSLEPGNHTVTLFWKPLSKLHANGKILFYNVVVENLDKPSSSELHSIPAPANSTKLILDRCSYQICVIANNSVGASPASVIVISADPENKEVEEERIAGTEGGFSLSWKPQPGDVIGYVVDWCDHTQDVLGDFQWKNVGPNTTSTVISTDAFRPGVRYDFRIYGLSTKRIACLLEKKTGYSQELAPSDNPHVLVDTLTSHSFTLSWKDYSTESQPGFIQGYHVYLKSKARQCHPRFEKAVLSDGSECCKYKIDNPEEKALIVDNLKPESFYEFFITPFTSAGEGPSATFTKVTTPDEHSSMLIHILLPMVFCVLLIMVMCYLKSQWIKETCYPDIPDPYKSSILSLIKFKENPHLIIMNVSDCIPDAIEVVSKPEGTKIQFLGTRKSLTETELTKPNYLYLLPTEKNHSGPGPCICFENLTYNQAASDSGSCGHVPVSPKAPSMLGLMTSPENVLKALEKNYMNSLGEIPAGETSLNYVSQLASPMFGDKDSLPTNPVEAPHCSEYKMQMAVSLRLALPPPTENSSLSSITLLDPGEHYC [OSMR] | -0.0468 | 50.9 | 51.1 | -0.0968 | 0.598 | -0.083

From the supplement of paper PMC5998384
